In PMC7618776, “Direct recruitment of Mis18 to interphase spindle pole bodies promotes CENP-A chromatin assembly” (Current biology : CB, 2023):

Molecular target: T1, 6His-msfGFP-TEV-Mis18FL (S. pombe, UniProt Q9P802 1-194)
T1 construct: Mis18, S. pombe, full length (residues 1-194); Cloned into the vector pET His6 msfGFP TEV (9GFP, Addgene 48287); also called GFP-Mis18; 6His-GFP-Mis18FL; source: E. coli BL21 Gold, purified (HisTrap HP, SEC); not shown: msfGFP, N-terminal, kept
T1 sequence (looked up): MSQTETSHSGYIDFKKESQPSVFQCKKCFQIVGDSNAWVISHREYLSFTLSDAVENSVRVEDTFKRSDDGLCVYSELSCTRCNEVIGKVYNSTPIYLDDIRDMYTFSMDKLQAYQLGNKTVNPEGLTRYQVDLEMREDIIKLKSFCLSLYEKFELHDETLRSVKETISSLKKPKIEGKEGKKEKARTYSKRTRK
Assay: pull-down; 6His-MBP-Sad1(2-167) or 6His-MBP on amylose resin mixed with candidate binding proteins, each protein at 5 μM; 20 mM HEPES pH 7.0, 150 mM NaCl, 1 mM TCEP, 0.01% Tween-20; 4°C 1 hr; Coomassie-stained SDS-PAGE
Conditions: both partners purified

binding result: binds
B1: 6His-MBP-Sad1(2-167) (domain or fragment, S. pombe, UniProt Q09825 2-167, looked up)
chain: FTNTPVGGKRERQNGAHPAWSTLGANSAQIHQNTADLASKMHKLRYTKIRSPPTRVSIESITPKQRFPAPNFEQAYHSNIRYEQEESDNEEFENVVKNGHEASTNVFYESDGDDEEFVNEEYENSIDEESDDEGYSLNEDTTATNASFRYPMNQRSTRKSQFYSSK
notes: Cloned into the vector pET-6His-MBP-TEV (9C, Addgene 48286) by LIC; also called MBP-Sad1-N; source: E. coli BL21-CodonPlus (DE3)-RIPL, purified (TALON resin); not shown: His6, N-terminal, kept; MBP, N-terminal, kept
